{"source": "ChEMBL document CHEMBL1140936", "about": "“Topological polar surface area defines substrate transport by multidrug resistance associated protein 1 (MRP1/ABCC1)” (J Med Chem, 2009)", "key": {"[1]": {"substrate": "N[C@@H](CCC(=O)N[C@@H](CSSC[C@H](NC(=O)CC[C@H](N)C(=O)O)C(=O)NCC(=O)O)C(=O)NCC(=O)O)C(=O)O", "test": "Activity of MRP1"}, "[2]": {"substrate": "N[C@@H](CCC(=O)N[C@@H](CS)C(=O)NCC(=O)O)C(=O)O", "test": "not read"}}, "data": [{"protein": "Multidrug resistance-associated protein 1 (Homo sapiens) (protein) MALRGFCSADGSDPLWDWNVTWNTSNPDFTKCFQNTVLVWVPCFYLWACFPFYFLYLSRHDRGYIQMTPLNKTKTALGFLLWIVCWADLFYSFWERSRGIFLAPVFLVSPTLLGITMLLATFLIQLERRKGVQSSGIMLTFWLVALVCALAILRSKIMTALKEDAQVDLFRDITFYVYFSLLLIQLVLSCFSDRSPLFSETIHDPNPCPESSASFLSRITFWWITGLIVRGYRQPLEGSDLWSLNKEDTSEQVVPVLVKNWKKECAKTRKQPVKVVYSSKDPAQPKESSKVDANEEVEALIVKSPQKEWNPSLFKVLYKTFGPYFLMSFFFKAIHDLMMFSGPQILKLLIKFVNDTKAPDWQGYFYTVLLFVTACLQTLVLHQYFHICFVSGMRIKTAVIGAVYRKALVITNSARKSSTVGEIVNLMSVDAQRFMDLATYINMIWSAPLQVILALYLLWLNLGPSVLAGVAVMVLMVPVNAVMAMKTKTYQVAHMKSKDNRIKLMNEILNGIKVLKLYAWELAFKDKVLAIRQEELKVLKKSAYLSAVGTFTWVCTPFLVALCTFAVYVTIDENNILDAQTAFVSLALFNILRFPLNILPMVISSIVQASVSLKRLRIFLSHEELEPDSIERRPVKDGGGTNSITVRNATFTWARSDPPTLNGITFSIPEGALVAVVGQVGCGKSSLLSALLAEMDKVEGHVAIKGSVAYVPQQAWIQNDSLRENILFGCQLEEPYYRSVIQACALLPDLEILPSGDRTEIGEKGVNLSGGQKQRVSLARAVYSNADIYLFDDPLSAVDAHVGKHIFENVIGPKGMLKNKTRILVTHSMSYLPQVDVIIVMSGGKISEMGSYQELLARDGAFAEFLRTYASTEQEQDAEENGVTGVSGPGKEAKQMENGMLVTDSAGKQLQRQLSSSSSYSGDISRHHNSTAELQKAEAKKEETWKLMEADKAQTGQVKLSVYWDYMKAIGLFISFLSIFLFMCNHVSALASNYWLSLWTDDPIVNGTQEHTKVRLSVYGALGISQGIAVFGYSMAVSIGGILASRCLHVDLLHSILRSPMSFFERTPSGNLVNRFSKELDTVDSMIPEVIKMFMGSLFNVIGACIVILLATPIAAIIIPPLGLIYFFVQRFYVASSRQLKRLESVSRSPVYSHFNETLLGVSVIRAFEEQERFIHQSDLKVDENQKAYYPSIVANRWLAVRLECVGNCIVLFAALFAVISRHSLSAGLVGLSVSYSLQVTTYLNWLVRMSSEMETNIVAVERLKEYSETEKEAPWQIQETAPPSSWPQVGRVEFRNYCLRYREDLDFVLRHINVTINGGEKVGIVGRTGAGKSSLTLGLFRINESAEGEIIIDGINIAKIGLHDLRFKITIIPQDPVLFSGSLRMNLDPFSQYSDEEVWTSLELAHLKDFVSALPDKLDHECAEGGENLSVGQRQLVCLARALLRKTKILVLDEATAAVDLETDDLIQSTIRTQFEDCTVLTIAHRLNTIMDYTRVIVLDKGEIQEYGAPSDLLQQRGLFYSMAKDAGLV", "values": [{"measurement": "Km", "setting": "[1]", "result": 93, "unit": "µM"}, {"measurement": "Km", "setting": "[2]", "result": 5000, "unit": "µM"}]}]}
